Experimental data taken from article PMC6283417, “The structure of the RbBP5 β-propeller domain reveals a surface with potential nucleic acid binding sites”.

What was measured:
[1] = biological target: T1, RbBP5 beta-propeller (1-340) wild type (mouse, UniProt Q8BX09 1-340); assay: NMR 1H-15N HSQC titration; marginally stronger than 7N-RNA pool; Anisotropy: 50 mM Tris pH 7.4, 150 mM NaCl, 0.5 mM DTT, 20 C; NMR conditions not in the material; details: protein: recombinant; tags: 6xHis-SUMO removed by 3C protease
T1 sequence (Q8BX09 1-340): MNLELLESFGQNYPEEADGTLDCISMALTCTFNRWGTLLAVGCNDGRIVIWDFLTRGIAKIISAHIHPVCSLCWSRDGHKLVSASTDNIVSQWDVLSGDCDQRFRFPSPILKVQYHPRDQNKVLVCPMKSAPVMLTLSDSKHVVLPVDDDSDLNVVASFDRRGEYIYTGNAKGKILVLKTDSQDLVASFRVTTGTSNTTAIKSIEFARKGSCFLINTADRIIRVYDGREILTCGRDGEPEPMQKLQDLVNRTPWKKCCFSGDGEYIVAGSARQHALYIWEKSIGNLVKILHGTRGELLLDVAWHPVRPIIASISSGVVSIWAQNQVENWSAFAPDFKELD

[2] = biological target: T1, RbBP5 beta-propeller (1-340) wild type; assay: fluorescence anisotropy; Anisotropy: 50 mM Tris pH 7.4, 150 mM NaCl, 0.5 mM DTT, 20 C; NMR conditions not in the material; details: protein: recombinant; tags: 6xHis-SUMO removed by 3C protease; label: 6-FAM (3')

Binder	binding result [1]	Kd [2] [µM]
UAGGUUC (ssRNA) [SIA optimized RNA 7-mer]	binds	
GCAUAGGUUCGAUC (ssRNA) [14-mer ssRNA-6FAM]		22.5 ± 3.2
